Results taken from paper PMC12455585.

Key:
Assay in all cases: fluorescence anisotropy
Conditions in all cases: 50 mM HEPES-NaOH pH 7.2, 50 mM NaCl (50-250 mM in salt series), 20 or 50 nM DNA, 60 min, 25 C
[1] = system: OBMg (ComEC OB fold) WT (Moorella glycerini)
[2] = system: OBMg R188A (Moorella glycerini)
[3] = system: OBMg R115A (Moorella glycerini)
[4] = system: OBMg R175A (Moorella glycerini)
[5] = system: OBMg K192A (Moorella glycerini)
[6] = system: OBMg R122A (Moorella glycerini)
[7] = system: OBMg R112A (Moorella glycerini)
[8] = system: OBMg R150A (Moorella glycerini)

Row | Sequence | Kd [1] | binding signal (fold Kd increase vs WT) [2] | binding signal (fold Kd increase vs WT) [3] | binding signal (fold Kd increase vs WT) [4] | binding signal (fold Kd increase vs WT) [5] | binding signal (fold Kd increase vs WT) [6] | binding signal (fold Kd increase vs WT) [7] | binding signal (fold Kd increase vs WT) [8]
1 | GTTCGCAACGAA [12-mer ssDNA] | 790 nM | – | – | – | – | – | – | –
2 | GTTCGCAACGAA (double strand) [12 bp dsDNA] | 330 nM | > 2 | > 2 | > 2 | > 2 | > 2 | > 2 | > 2
